In this experiment the target is HRV-3C protease biosensor: blocked hybrid scFv of H6-MG (VH) and HL1-TO1 (VL) with the HRV-3C recognition sequence […]in the peptide linker. Kind of experiment: cell-based or functional assay.

The substance Human Rhinovirus 3C protease (enzyme) returned a kinetic assay of MG fluorescence activation, time to complete activation (1 unit protease, 25° C.) of 30 min.

Values taken from patent US20160033490A1.
